Target: the molecule itself
Experiment: crystal structure

Protein: Ac-GKKSAWATVISALATVISALATVISAWATVG-NH2 [K2-CCTM-VbIc]
- stoichiometry N: 8

— article PMC7611114 (Nature chemistry, 2021)
